The text below walks through data of patent US20110118131A1 (published 2011).

The chains are these.
B1: XPA23 light chain S93D (Fab, V domains shown)
VH: EVQLLESGGGLVQPGGSLRLSCAASGFTFSKYFMFWVRQAPGKGLEWVSVISPSGGMTRYADSVKGRFTISRDNSKNTLYLQMNSLRAEDTAVYYCARVGYGGNSDYWGQGTLVTVSS
VL: DIQMTQSPSSVSASVGDRLTIICRASQDINRWLAWYQQTPGNAPKLLIHSATSLQSGVPSRFSGSGSGTDFTLTINSLQPEDFATYYCQQADDFPLTFGGGTKVEIK
B2: XPA23 light chain T52G (Fab, V domains shown)
VH: EVQLLESGGGLVQPGGSLRLSCAASGFTFSKYFMFWVRQAPGKGLEWVSVISPSGGMTRYADSVKGRFTISRDNSKNTLYLQMNSLRAEDTAVYYCARVGYGGNSDYWGQGTLVTVSS
VL: DIQMTQSPSSVSASVGDRLTIICRASQDINRWLAWYQQTPGNAPKLLIHSAGSLQSGVPSRFSGSGSGTDFTLTINSLQPEDFATYYCQQADSFPLTFGGGTKVEIK
B3: XPA23 light chain T52D (Fab, V domains shown)
VH: EVQLLESGGGLVQPGGSLRLSCAASGFTFSKYFMFWVRQAPGKGLEWVSVISPSGGMTRYADSVKGRFTISRDNSKNTLYLQMNSLRAEDTAVYYCARVGYGGNSDYWGQGTLVTVSS
VL: DIQMTQSPSSVSASVGDRLTIICRASQDINRWLAWYQQTPGNAPKLLIHSADSLQSGVPSRFSGSGSGTDFTLTINSLQPEDFATYYCQQADSFPLTFGGGTKVEIK
B4: XPA23 light chain S93Y (Fab, V domains shown)
VH: EVQLLESGGGLVQPGGSLRLSCAASGFTFSKYFMFWVRQAPGKGLEWVSVISPSGGMTRYADSVKGRFTISRDNSKNTLYLQMNSLRAEDTAVYYCARVGYGGNSDYWGQGTLVTVSS
VL: DIQMTQSPSSVSASVGDRLTIICRASQDINRWLAWYQQTPGNAPKLLIHSATSLQSGVPSRFSGSGSGTDFTLTINSLQPEDFATYYCQQADYFPLTFGGGTKVEIK
B5: XPA23 light chain S93K (Fab, V domains shown)
VH: EVQLLESGGGLVQPGGSLRLSCAASGFTFSKYFMFWVRQAPGKGLEWVSVISPSGGMTRYADSVKGRFTISRDNSKNTLYLQMNSLRAEDTAVYYCARVGYGGNSDYWGQGTLVTVSS
VL: DIQMTQSPSSVSASVGDRLTIICRASQDINRWLAWYQQTPGNAPKLLIHSATSLQSGVPSRFSGSGSGTDFTLTINSLQPEDFATYYCQQADKFPLTFGGGTKVEIK
B6: XPA23 light chain T52P (Fab, V domains shown)
VH: EVQLLESGGGLVQPGGSLRLSCAASGFTFSKYFMFWVRQAPGKGLEWVSVISPSGGMTRYADSVKGRFTISRDNSKNTLYLQMNSLRAEDTAVYYCARVGYGGNSDYWGQGTLVTVSS
VL: DIQMTQSPSSVSASVGDRLTIICRASQDINRWLAWYQQTPGNAPKLLIHSAPSLQSGVPSRFSGSGSGTDFTLTINSLQPEDFATYYCQQADSFPLTFGGGTKVEIK
B7: XPA23 light chain T52E (Fab, V domains shown)
VH: EVQLLESGGGLVQPGGSLRLSCAASGFTFSKYFMFWVRQAPGKGLEWVSVISPSGGMTRYADSVKGRFTISRDNSKNTLYLQMNSLRAEDTAVYYCARVGYGGNSDYWGQGTLVTVSS
VL: DIQMTQSPSSVSASVGDRLTIICRASQDINRWLAWYQQTPGNAPKLLIHSAESLQSGVPSRFSGSGSGTDFTLTINSLQPEDFATYYCQQADSFPLTFGGGTKVEIK
B8: XPA23 light chain S93Q (Fab, V domains shown)
VH: EVQLLESGGGLVQPGGSLRLSCAASGFTFSKYFMFWVRQAPGKGLEWVSVISPSGGMTRYADSVKGRFTISRDNSKNTLYLQMNSLRAEDTAVYYCARVGYGGNSDYWGQGTLVTVSS
VL: DIQMTQSPSSVSASVGDRLTIICRASQDINRWLAWYQQTPGNAPKLLIHSATSLQSGVPSRFSGSGSGTDFTLTINSLQPEDFATYYCQQADQFPLTFGGGTKVEIK
B9: XPA23 light chain S93E (Fab, V domains shown)
VH: EVQLLESGGGLVQPGGSLRLSCAASGFTFSKYFMFWVRQAPGKGLEWVSVISPSGGMTRYADSVKGRFTISRDNSKNTLYLQMNSLRAEDTAVYYCARVGYGGNSDYWGQGTLVTVSS
VL: DIQMTQSPSSVSASVGDRLTIICRASQDINRWLAWYQQTPGNAPKLLIHSATSLQSGVPSRFSGSGSGTDFTLTINSLQPEDFATYYCQQADEFPLTFGGGTKVEIK
B10: XPA23 light chain T52L (Fab, V domains shown)
VH: EVQLLESGGGLVQPGGSLRLSCAASGFTFSKYFMFWVRQAPGKGLEWVSVISPSGGMTRYADSVKGRFTISRDNSKNTLYLQMNSLRAEDTAVYYCARVGYGGNSDYWGQGTLVTVSS
VL: DIQMTQSPSSVSASVGDRLTIICRASQDINRWLAWYQQTPGNAPKLLIHSALSLQSGVPSRFSGSGSGTDFTLTINSLQPEDFATYYCQQADSFPLTFGGGTKVEIK
B11: XPA23 light chain T52A (Fab, V domains shown)
VH: EVQLLESGGGLVQPGGSLRLSCAASGFTFSKYFMFWVRQAPGKGLEWVSVISPSGGMTRYADSVKGRFTISRDNSKNTLYLQMNSLRAEDTAVYYCARVGYGGNSDYWGQGTLVTVSS
VL: DIQMTQSPSSVSASVGDRLTIICRASQDINRWLAWYQQTPGNAPKLLIHSAASLQSGVPSRFSGSGSGTDFTLTINSLQPEDFATYYCQQADSFPLTFGGGTKVEIK
B12: XPA23 light chain T52N (Fab, V domains shown)
VH: EVQLLESGGGLVQPGGSLRLSCAASGFTFSKYFMFWVRQAPGKGLEWVSVISPSGGMTRYADSVKGRFTISRDNSKNTLYLQMNSLRAEDTAVYYCARVGYGGNSDYWGQGTLVTVSS
VL: DIQMTQSPSSVSASVGDRLTIICRASQDINRWLAWYQQTPGNAPKLLIHSANSLQSGVPSRFSGSGSGTDFTLTINSLQPEDFATYYCQQADSFPLTFGGGTKVEIK
B13: XPA23 light chain S93F (Fab, V domains shown)
VH: EVQLLESGGGLVQPGGSLRLSCAASGFTFSKYFMFWVRQAPGKGLEWVSVISPSGGMTRYADSVKGRFTISRDNSKNTLYLQMNSLRAEDTAVYYCARVGYGGNSDYWGQGTLVTVSS
VL: DIQMTQSPSSVSASVGDRLTIICRASQDINRWLAWYQQTPGNAPKLLIHSATSLQSGVPSRFSGSGSGTDFTLTINSLQPEDFATYYCQQADFFPLTFGGGTKVEIK
B14: XPA23 light chain S93H (Fab, V domains shown)
VH: EVQLLESGGGLVQPGGSLRLSCAASGFTFSKYFMFWVRQAPGKGLEWVSVISPSGGMTRYADSVKGRFTISRDNSKNTLYLQMNSLRAEDTAVYYCARVGYGGNSDYWGQGTLVTVSS
VL: DIQMTQSPSSVSASVGDRLTIICRASQDINRWLAWYQQTPGNAPKLLIHSATSLQSGVPSRFSGSGSGTDFTLTINSLQPEDFATYYCQQADHFPLTFGGGTKVEIK
B15: XPA23 light chain S93N (Fab, V domains shown)
VH: EVQLLESGGGLVQPGGSLRLSCAASGFTFSKYFMFWVRQAPGKGLEWVSVISPSGGMTRYADSVKGRFTISRDNSKNTLYLQMNSLRAEDTAVYYCARVGYGGNSDYWGQGTLVTVSS
VL: DIQMTQSPSSVSASVGDRLTIICRASQDINRWLAWYQQTPGNAPKLLIHSATSLQSGVPSRFSGSGSGTDFTLTINSLQPEDFATYYCQQADNFPLTFGGGTKVEIK
B16: XPA23 light chain S93W (Fab, V domains shown)
VH: EVQLLESGGGLVQPGGSLRLSCAASGFTFSKYFMFWVRQAPGKGLEWVSVISPSGGMTRYADSVKGRFTISRDNSKNTLYLQMNSLRAEDTAVYYCARVGYGGNSDYWGQGTLVTVSS
VL: DIQMTQSPSSVSASVGDRLTIICRASQDINRWLAWYQQTPGNAPKLLIHSATSLQSGVPSRFSGSGSGTDFTLTINSLQPEDFATYYCQQADWFPLTFGGGTKVEIK
B17: XPA23 light chain T52H (Fab, V domains shown)
VH: EVQLLESGGGLVQPGGSLRLSCAASGFTFSKYFMFWVRQAPGKGLEWVSVISPSGGMTRYADSVKGRFTISRDNSKNTLYLQMNSLRAEDTAVYYCARVGYGGNSDYWGQGTLVTVSS
VL: DIQMTQSPSSVSASVGDRLTIICRASQDINRWLAWYQQTPGNAPKLLIHSAHSLQSGVPSRFSGSGSGTDFTLTINSLQPEDFATYYCQQADSFPLTFGGGTKVEIK
B18: XPA23 light chain T52K (Fab, V domains shown)
VH: EVQLLESGGGLVQPGGSLRLSCAASGFTFSKYFMFWVRQAPGKGLEWVSVISPSGGMTRYADSVKGRFTISRDNSKNTLYLQMNSLRAEDTAVYYCARVGYGGNSDYWGQGTLVTVSS
VL: DIQMTQSPSSVSASVGDRLTIICRASQDINRWLAWYQQTPGNAPKLLIHSAKSLQSGVPSRFSGSGSGTDFTLTINSLQPEDFATYYCQQADSFPLTFGGGTKVEIK
B19: XPA23 light chain S93R (Fab, V domains shown)
VH: EVQLLESGGGLVQPGGSLRLSCAASGFTFSKYFMFWVRQAPGKGLEWVSVISPSGGMTRYADSVKGRFTISRDNSKNTLYLQMNSLRAEDTAVYYCARVGYGGNSDYWGQGTLVTVSS
VL: DIQMTQSPSSVSASVGDRLTIICRASQDINRWLAWYQQTPGNAPKLLIHSATSLQSGVPSRFSGSGSGTDFTLTINSLQPEDFATYYCQQADRFPLTFGGGTKVEIK
B20: XPA23 light chain T52F (Fab, V domains shown)
VH: EVQLLESGGGLVQPGGSLRLSCAASGFTFSKYFMFWVRQAPGKGLEWVSVISPSGGMTRYADSVKGRFTISRDNSKNTLYLQMNSLRAEDTAVYYCARVGYGGNSDYWGQGTLVTVSS
VL: DIQMTQSPSSVSASVGDRLTIICRASQDINRWLAWYQQTPGNAPKLLIHSAFSLQSGVPSRFSGSGSGTDFTLTINSLQPEDFATYYCQQADSFPLTFGGGTKVEIK
B21: XPA23 light chain T52I (Fab, V domains shown)
VH: EVQLLESGGGLVQPGGSLRLSCAASGFTFSKYFMFWVRQAPGKGLEWVSVISPSGGMTRYADSVKGRFTISRDNSKNTLYLQMNSLRAEDTAVYYCARVGYGGNSDYWGQGTLVTVSS
VL: DIQMTQSPSSVSASVGDRLTIICRASQDINRWLAWYQQTPGNAPKLLIHSAISLQSGVPSRFSGSGSGTDFTLTINSLQPEDFATYYCQQADSFPLTFGGGTKVEIK

For this test, the target named is T1, IL-1β (UniProt P01584 117-269).
T1 construct: Antigen immobilised on the Biacore chip
Briefly: Biacore, periplasmic extract.
Consider B1, for which the “fold difference in affinity vs original” value worked out at 4.59 fold.

Consider B2, for which the binding result is reported as “no binding”.

As to B3, the “fold difference in affinity vs original” value came to 0.72 fold.

On to B4, for which the “fold difference in affinity vs original” value amounted to 1.45 fold.

As to B5, the “fold difference in affinity vs original” value stood at 0.86 fold.

As for B6, the “fold difference in affinity vs original” value was 1.08 fold.

On to B7, for which the “fold difference in affinity vs original” value is 0.61 fold.

As for B8, the “fold difference in affinity vs original” value was found to be 1.54 fold.

Take B9: the “fold difference in affinity vs original” value worked out at 3.71 fold.

Turning to B10, the “fold difference in affinity vs original” value is 0.78 fold.

As for B11, the “fold difference in affinity vs original” value was 0.66 fold.

In the case of B12, the “fold difference in affinity vs original” value is 0.83 fold.

Consider B13, for which the “fold difference in affinity vs original” value turned out to be 1.32 fold.

On to B14, for which the “fold difference in affinity vs original” value came out at 1.08 fold.

For B15, the “fold difference in affinity vs original” value worked out at 3.76 fold.

For B16, the “fold difference in affinity vs original” value worked out at 5.49 fold.

As to B17, the “fold difference in affinity vs original” value is 0.91 fold.

Take B18: the “fold difference in affinity vs original” value stood at 3.23 fold.

Turning to B19, the “fold difference in affinity vs original” value came to 0.91 fold.

Consider B20, for which the “fold difference in affinity vs original” value worked out at 1.05 fold.

For the molecule B21, the “fold difference in affinity vs original” value was found to be 0.8 fold.
